# Measurements reported in PMC6368601.
# Target: taxol-stabilized microtubules polymerized from bovine brain tubulin dimers (bovine) (UniProt Q6B856)
# Assay: co-sedimentation; 100 nM ISB (WT, MTBM or Δ20) with various concentrations of taxol-stabilized microtubules; BRB80, 1 mM DTT, 50 mM NaCl, 20 uM paclitaxel; 15 min at room temperature; 50% glycerol cushion, 279,000 x g; blot with anti-Borealin; apparent Kd from a one-site specific binding fit of three experiments
substance,measurement,value
"ISB^MTBM: INCENP^1-58-Survivin-Borealin(R17E, R19E, K20E) complex (from UniProt Q9NQS7 1-58; O15392 1-142; Q53HL2 1-280)",Kd,4.2 µM
